We go through four molecules from patent publication US20230028880A1, “CD38-BINDING AGENTS AND USES THEREOF” (Biohaven Therapeutics Ltd., priority 2019, published 2023).

Values joined by “and” are separate entries in the source; they are usually repeats but may differ in a detail not shown here. Equal values may be shown once. Bridges are numbered along the chain shown (N, C = ends). Roman numbers before positions name the chains, in order. Where no end group is shown, it is not given here. [ ]: non-standard residue; d: D form. branched linker from compound 8 (carries γGlu-hexadecanedioic acid) = not defined here; Bip = N[C@@H](Cc1ccc(-c2ccccc2)cc1)C(=O)O; Ahp(2) = CCCCC[C@H](N)C(=O)O

One assay concerns the target CD38 (human) (UniProt P28907). The experiment in a line: ELISA; larger values represent binding. (ELISA stands for enzyme-linked immunosorbent assay.)
The target of assay [1] is T1, CD38 (human, UniProt P28907 1-300).
T1 construct: whole, on cells; also called cluster of differentiation 38; cyclic ADP ribose hydrolase
The experiment in a line: ternary binding, flow cytometry: PE-labelled human IgG1k recruited to Daudi cells. How it is done: Various technologies can be utilized to assess and/or characterize recruitment of antibodies to target cells, e.g., cancer cells. One such assay is a ternary binding assay. An exemplary protocol is described herein. Compounds were diluted in DMSO (MP 191418) to 1000× the starting concentration used in the assay into a 96 well polypropylene plate (Corning 3357). They were then serially diluted in ½ log increments to generate 8-12 concentrations in DMSO (assay dependent). These DMSO stocks were then step diluted 1/100 into PBS (VWR Cat. #20012043). Step diluted compound range was then added into the polypropylene assay plate 1/10 the volume of the assay volume. […] The cells were then added into the polypropylene plate with the step diluted compounds and incubated at 37° C. for 30 min. At the end of the incubation, the cells were centrifuged and washed 2× with How buffer containing 0.5% Tween 20 (BP337-500). Samples were analyzed on a BD FacsCelesta. Mean fluorescence was analyzed using Graphpad Prism and curves were fit using log(inhibitor) vs. response—Variable slope (four parameters).
(In flow cytometry, cells or beads pass a laser one at a time.)

Assay [2] has as its target T1, CD38. The experiment in a line: cell-based or functional assay.
For assay [3], the target named is T1, CD38. The experiment in a line: cell-based or functional assay. This is another data set of the same source.
Assay [4] has as its target CD38 on Daudi cells (human) (UniProt P28907). The experiment in a line: ternary binding, flow cytometry: Daudi cells + PE human IgG1k.
Assay [5] concerns the target CD38 on Daudi cells (ATCC CCL-213) (human) (UniProt P28907). The experiment in a line: cell-based or functional assay.

The molecule “Ala Leu His MePhe Val Leu Pro Bph Val Trp Val Cys (SEQ ID NO.2) (peptide)” yielded a Binding Assay (ELISA signal) with CD38 (human) of 1.69.
The same measure, in the same setting: the result for “Ala Arg Ahp Tyr His Asp Gly Val Leu Bph Ahp Asp Cys (SEQ ID NO.1) (peptide)” reads 1.97.

B1: I-32 (peptide)
peptide 1: {‑C(O)CH2‑}-AR[Ahp(2)]YHDGVL[Bip][Ahp(2)]DC-{branched linker from compound 8 (carries γGlu-hexadecanedioic acid)}
peptide 2: DDCAWHLGELVWCT-NH2
modifications: disulfide II:3-II:13; not fully specified (N-terminus); reading uncertain; also: N-terminus of chain 2 amide-bonded to the branched linker (one conjugate), thioether at chain A 13 to a chain's N-terminus via -C(O)-CH2- (from 2-bromoacetic acid)
notes: One covalent conjugate
In turn, B1 showed an IC50 with CD38 [1] of 88 nM. Moreover, in the assay with CD38 [2], the “RLU at 100 nM” value was found to be 21800 RLU. Further, the “EC50 (nM), ADCC reporter cells” value with CD38 [3] stood at 63 nM. For the same molecule, in assay [4], the MFI at 0.3 nM was 1990 and 1770; the MFI at 1 nM was 2310 and 1770; the MFI at 3 nM is 1690 and 1630; the MFI at 10 nM is 2890 and 1820. In assay [4], the MFI at 30 nM is 4350 and 2820; the MFI at 100 nM was 13800 and 19500; the MFI at 300 nM is 26600 and 20600; the MFI at 1000 nM is 28500 and 32400. The MFI at 3000 nM in assay [4] was 23000 and 26100. Further, in assay [5], the % dead cells at 1 nM was 14.4% and 13.5%; the % dead cells at 3 nM is 12.8% and 13.5%; the % dead cells at 10 nM is 13% and 13.3%; the % dead cells at 30 nM was 14.7% and 14.3%. In assay [5], the % dead cells at 100 nM is 17.7% and 17.2%; the % dead cells at 300 nM was 19.5% and 20.1%; the % dead cells at 1000 nM was 19.7% and 20.4%; the % dead cells at 3000 nM is 16.9% and 16.8%.

B2: I-40 (peptide)
peptide 1: Ac-AR[Ahp(2)]YHDGVL[Bip][Ahp(2)]DCG
peptide 2: GDCAWHLGELVWCT-NH2
modifications: disulfide II:3-II:13; also: C-terminal Gly of chain 1 amide-bonded to N-terminal Gly of chain 2 (one chain), thioether at chain A 13 to a chain's N-terminus
notes: The section is headed I-40, its product is called compound 523; also called compound 523
The molecule B2 came in with a half-maximal inhibitory concentration (IC50) with CD38 [1] of 50 nM. Moreover, the “EC50 (nM), ADCC reporter cells” value in the assay with CD38 [3] was 50 nM. Moreover, in assay [4], the MFI at 0.03 nM was 819 and 477; the MFI at 0.1 nM was 956 and 1170; the MFI at 0.3 nM is 1150 and 1290; the MFI at 1 nM is 1100 and 966. In assay [4], the MFI at 3 nM is 900 and 1070; the MFI at 10 nM was 1950 and 1960; the MFI at 30 nM is 2160 and 2640; the MFI at 100 nM was 6090 and 6880. Moreover, in assay [4], the MFI at 300 nM is 7340 and 7420; the MFI at 1000 nM is 7290 and 7250; the MFI at 3000 nM was 7330 and 6680. The same molecule registered an EC50 (nM), killing of target cells in assay [5] of 1.9 nM.

Broadly, the IC50 is the concentration that inhibits the measured activity by half. Low values mean greater potency, high ones weaker potency.
